Assay results as given in publication PMC12507909.

Target: basigin (BSG), recombinant extracellular domain Met1-His205 (human)
Assay: ELISA; Maxisorp plates coated with 5 μg/mL of each receptor candidate; serial dilutions of PvRBP1a_(158-650)LTID and LTID (48,000 pM to 187.5 pM and 4,000 pM to 1.28 pM) in blocking solution, 16 hours at 4°C; detected with a TurboID-specific antibody; one-site binding saturation model; triplicates

With “PvRBP1a_(158-650)LTID fusion protein (from UniProt Q5DSE1 158-650) (domain or fragment)” as the substance, how does the Kd read?
Its Kd is 2.16 nM.
